# Test results published in patent US20100008937A1.
# Key:
# [1] = target: human WT LFA-1 on stably transfected K562 cells (human) (UniProt P20701); assay: cell-based or functional assay
# [2] = target: human HA (high-affinity) LFA-1 on stably transfected K562 cells (human) (UniProt P20701); assay: cell-based or functional assay
# human HA (high-affinity) LFA-1 on stably transfected K562 cells (human), sequence (P20701 26-1170 K312C/K319C limits assumed, chain 1 of 2): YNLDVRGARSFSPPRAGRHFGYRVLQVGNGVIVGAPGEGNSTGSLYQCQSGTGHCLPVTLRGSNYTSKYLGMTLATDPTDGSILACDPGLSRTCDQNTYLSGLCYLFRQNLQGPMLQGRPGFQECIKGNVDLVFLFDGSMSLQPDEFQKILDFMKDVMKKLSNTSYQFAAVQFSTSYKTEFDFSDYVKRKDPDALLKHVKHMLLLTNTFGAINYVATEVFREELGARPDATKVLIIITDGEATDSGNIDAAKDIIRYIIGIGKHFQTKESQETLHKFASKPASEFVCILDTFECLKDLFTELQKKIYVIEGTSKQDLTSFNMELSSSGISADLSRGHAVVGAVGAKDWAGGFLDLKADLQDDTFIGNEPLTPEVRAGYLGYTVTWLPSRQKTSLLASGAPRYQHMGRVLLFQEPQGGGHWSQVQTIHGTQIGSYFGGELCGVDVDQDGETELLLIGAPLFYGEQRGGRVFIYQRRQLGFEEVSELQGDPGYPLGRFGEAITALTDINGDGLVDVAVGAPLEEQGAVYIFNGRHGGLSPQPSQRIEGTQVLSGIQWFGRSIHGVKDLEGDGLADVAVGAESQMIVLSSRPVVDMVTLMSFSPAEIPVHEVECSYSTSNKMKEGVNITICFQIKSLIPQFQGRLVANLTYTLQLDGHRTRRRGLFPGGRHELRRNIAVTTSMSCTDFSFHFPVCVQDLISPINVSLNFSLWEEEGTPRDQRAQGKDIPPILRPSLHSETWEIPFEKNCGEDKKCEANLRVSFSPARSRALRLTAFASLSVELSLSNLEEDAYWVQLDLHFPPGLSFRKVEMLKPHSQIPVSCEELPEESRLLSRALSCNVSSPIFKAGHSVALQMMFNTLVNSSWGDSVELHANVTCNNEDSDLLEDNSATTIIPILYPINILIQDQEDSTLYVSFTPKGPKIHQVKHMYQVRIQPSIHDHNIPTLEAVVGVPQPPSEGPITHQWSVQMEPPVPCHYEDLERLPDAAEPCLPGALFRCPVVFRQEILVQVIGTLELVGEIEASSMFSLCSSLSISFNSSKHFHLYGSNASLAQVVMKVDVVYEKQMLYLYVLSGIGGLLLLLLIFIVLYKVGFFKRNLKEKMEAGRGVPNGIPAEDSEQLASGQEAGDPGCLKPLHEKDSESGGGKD
# human HA (high-affinity) LFA-1 on stably transfected K562 cells (human), sequence (P05107 23-769 limits assumed, chain 2 of 2, further chain): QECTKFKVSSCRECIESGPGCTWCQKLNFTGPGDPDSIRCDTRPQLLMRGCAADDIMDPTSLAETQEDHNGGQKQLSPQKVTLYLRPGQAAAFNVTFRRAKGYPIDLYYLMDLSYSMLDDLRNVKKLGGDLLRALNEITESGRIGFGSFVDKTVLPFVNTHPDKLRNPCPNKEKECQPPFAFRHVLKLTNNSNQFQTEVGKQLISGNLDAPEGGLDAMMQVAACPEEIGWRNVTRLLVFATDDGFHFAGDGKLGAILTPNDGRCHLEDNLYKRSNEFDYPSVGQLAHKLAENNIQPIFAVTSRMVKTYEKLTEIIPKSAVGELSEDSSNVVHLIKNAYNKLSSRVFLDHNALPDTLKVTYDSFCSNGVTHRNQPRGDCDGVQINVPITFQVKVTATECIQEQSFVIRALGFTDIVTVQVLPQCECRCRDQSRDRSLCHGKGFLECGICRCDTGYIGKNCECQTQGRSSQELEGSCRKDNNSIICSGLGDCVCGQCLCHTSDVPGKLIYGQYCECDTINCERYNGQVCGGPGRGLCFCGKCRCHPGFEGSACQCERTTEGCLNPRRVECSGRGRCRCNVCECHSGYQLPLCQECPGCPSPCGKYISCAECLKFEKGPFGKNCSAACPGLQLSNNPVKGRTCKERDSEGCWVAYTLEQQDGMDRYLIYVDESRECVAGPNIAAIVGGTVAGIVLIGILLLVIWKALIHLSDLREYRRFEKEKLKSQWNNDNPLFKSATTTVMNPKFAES
# human WT LFA-1 on stably transfected K562 cells (human), sequence (P20701 26-1170, chain 1 of 2): as the sequence (P20701 26-1170 K312C/K319C limits assumed, chain 1 of 2) above, with C287K, C294K counted along it
# human WT LFA-1 on stably transfected K562 cells (human), sequence (P05107 23-769, chain 2 of 2, further chain): as the sequence (P05107 23-769 limits assumed, chain 2 of 2, further chain) above
"Cy3+ K562 cells/Total K562 cells, % (in vivo Cy3-siRNA delivery) [1]","Cy3+ K562 cells/Total K562 cells, % (in vivo Cy3-siRNA delivery) [2]",Substance
88.5%,87.4%,"TS1/22-protamine fusion protein (scFv TS1/22 fused to human protamine residues 8-29, His6 tag) (from UniProt P04553 8-29)"
23.3%,88.1%,"AL-57-protamine fusion protein (scFv AL-57 fused to human protamine residues 8-29, His6 tag) (from UniProt P04553 8-29)"
